Measured values taken from patent publication US20230265198A1 (TWIST BIOSCIENCE, published 2023).
Changes are numbered by the printed parent chain.

B1: NRP1-80 (VHH)
VHH: EVQLVESGGGLVQPGGSLRLSCAASGSIDRINAMGWFRQAPGKEREFVASIWWTFDAPYYADSVKGRFTISADNSKNTAYLQMNSLKPEDTAVYYCATWTTTWGRNRDWGQGTLVTVSS
B2: NRP1-92 (VHH)
VHH: EVQLVESGGGLVQPGGSLRLSCAASGLLFSSYDMGWFRQAPGKEREFVAAITSGGRKNYADSVKGRFTISADNSKNTAYLQMNSLKPEDTAVYYCARYDYSGGLTFDYWGQGTLVTVSS
B3: NRP1-1 (VHH)
VHH: EVQLVESGGGLVQPGGSLRLSCAASGRTFRRYAMGWFRQAPGKEREFVASISRSGTLTRYADSVKGRFTISADNSKNTAYLQMNSLKPEDTAVYYCAAKTGAFSYGSLWWMSRAYNWGQGTLVTVSS
B4: NRP1-71 (VHH)
VHH: EVQLVESGGGLVQPGGSLRLSCAASGRTFSNAAMGWFRQAPGKERELVARITPGGNTNYADSVKGRFTISADNSKNTAYLQMNSLKPEDTAVYYCAARRIVNVEGAYRDWGQGTLVTVSS
B5: NRP1-46 (VHH)
VHH: B4 VHH with R27F, S30R, A32F, A33G, L47I, T52S, G54S, N58Y
B6: NRP1-65 (VHH)
VHH: B4 VHH with F29I, L47W, R50A, P53S, N56Y, N58H
B7: NRP1-51 (VHH)
VHH: B4 VHH with R27F, T28A, A32Y, A33H
B8: NRP1-100 (VHH)
VHH: B4 VHH with T28S, F29V, N31T, A32Y, A33G, R50S, T52S, P53R, G54F, N56R
B9: NRP1-48 (VHH)
VHH: B4 VHH with R27F, S30R, A32F, A33G, P53G, N56S, N58A
B10: NRP1-77 (VHH)
VHH: B4 VHH with T28I, S30I, A32N, T52S, G54A, N56S, N58Y
B11: NRP1-59 (VHH)
VHH: B4 VHH with F29I, R50S, T52S, P53R, G54F, N56R
B12: NRP1-17 (VHH)
VHH: EVQLVESGGGLVQPGGSLRLSCAASGRFSRINSMGWFRQAPGKERELVAAIMWSGGSTKYADSVKGRFTISADNSKNTAYLQMNSLKPEDTAVYYCAAGSPSRLVNMWQYNWGQGTLVTVSS
B13: NRP1-41 (VHH)
VHH: B12 VHH with L47S, M52S, S54N, T58I, K59Y
B14: NRP1-91 (VHH)
VHH: EVQLVESGGGLVQPGGSLRLSCAASGNIFINNAMGWFRQAPGKERELVAAITSSSGRRWYADSVKGRFTISADNSKNTAYLQMNSLKPEDTAVYYCAAGSPSRLVNMWQYNWGQGTLVTVSS
B15: NRP1-76 (VHH)
VHH: EVQLVESGGGLVQPGGSLRLSCAASGITFRRYAMGWFRQAPGKEREIVATIWWTFDAPYYADSVKGRFTISADNSKNTAYLQMNSLKPEDTAVYYCAAYQAGWGDWGQGTLVTVSS
B16: NRP1-74 (VHH)
VHH: B15 VHH with I27S, F29L, R31D, A33T, I47F
B17: NRP1-61 (VHH)
VHH: B15 VHH with I27R, R30S, I47W, T50G, W52S, F55G, D56G, A57I, P58T, A101R
B18: NRP1-2 (VHH)
VHH: B15 VHH with I27G, R30T, R31K, Y32Q, A33T, I47F
B19: NRP1-72 (VHH)
VHH: B15 VHH with I27R, I47F, W52S, T54S, F55G, D56A, A57L, P58T, Y59H, A101R
B20: NRP1-83 (VHH)
VHH: B15 VHH with I27S, T28I, F29G, R31E, Y32V, I47L
B21: NRP1-79 (VHH)
VHH: EVQLVESGGGLVQPGGSLRLSCAASGRTYYAMGWFRQAPGKEREFVAAISWGGGLTVYADSVKGRFTISADNSKNTAYLQMNSLKPEDTAVYYCASSGWLTDYYYAMDVWGQGTLVTVSS
B22: NRP1-96 (VHH)
VHH: EVQLVESGGGLVQPGGSLRLSCAASGLTYTMSWFRQAPGKEREFVAGFSGSGSVTSYADSVKGRFTISADNSKNTAYLQMNSLKPEDTAVYYCAAFDGYSGSDWGQGTLVTVSS
B23: NRP1-85 (VHH)
VHH: EVQLVESGGGLVQPGGSLRLSCAASGSRFSGRFNILNMGWFRQAPGKERESVAAINWSGGTSTYYADSVKGRFTISADNSKNTAYLQMNSLKPEDTAVYYCAAGSNIGGSRWRYDWGQGTLVTVSS
B24: NRP1-87 (VHH)
VHH: EVQLVESGGGLVQPGGSLRLSCAASGRIFTMGWFRQAPGKEREFVASITTDGNTLYADSVKGRFTISADNSKNTAYLQMNSLKPEDTAVYYCARWVGASAYHYGMDVWGQGTLVTVSS
B25: NRP1-90 (VHH)
VHH: EVQLVESGGGLVQPGGSLRLSCAASGGIFSINDMGWFRQAPGKEREFVARITSGGSTNYADSVKGRFTISADNSKNTAYLQMNSLKPEDTAVYYCAKADYYDSSDFDSWGQGTLVTVSS
B26: NRP1-93 (VHH)
VHH: EVQLVESGGGLVQPGGSLRLSCAASGIPFRSRTMGWFRQAPGKEREFVATINTGGGTYADSVKGRFTISADNSKNTAYLQMNSLKPEDTAVYYCARHGDTYYYGSGTVRSLDYWGQGTLVTVSS
B27: NRP1-7 (VHH)
VHH: EVQLVESGGGLVQPGGSLRLSCAASGRIFIIYAMGWFRQAPGKERELVAAITRTGGRPCYADSVKGRFTISADNSKNTAYLQMNSLKPEDTAVYYCAARRMLSPEGAHPDWGQGTLVTVSS
B28: NRP1-89 (VHH)
VHH: EVQLVESGGGLVQPGGSLRLSCAASGINFSRYGMGWFRQAPGKEREWVSAISSGGGSITTYADSVKGRFTISADNSKNTAYLQMNSLKPEDTAVYYCARHNSGWHFDYWGQGTLVTVSS
B29: NRP1-88 (VHH)
VHH: EVQLVESGGGLVQPGGSLRLSCAASGGIFSRYDMGWFRQAPGKEREFVATITSTGDTYADSVKGRFTISADNSKNTAYLQMNSLKPEDTAVYYCARLGGNSEYYYYYGMDVWGQGTLVTVSS
B30: NRP1-78 (VHH)
VHH: EVQLVESGGGLVQPGGSLRLSCAASGRTFRSYPMGWFRQAPGKEREWVASITSSATAYADSVKGRFTISADNSKNTAYLQMNSLKPEDTAVYYCALGPVRRSRLEWGQGTLVTVSS
B31: NRP1-37 (VHH)
VHH: EVQLVESGGGLVQPGGSLRLSCAASGRTFSIYAMGWFRQAPGKERELVAAISRTGGSTYYADSVKGRFTISADNSKNTAYLQMNSLKPEDTAVYYCAADRMYRPVGNQYDWGQGTLVTVSS
B32: NRP1-86 (VHH)
VHH: EVQLVESGGGLVQPGGSLRLSCAASGNIFINNAMGWFRQAPGKERELVAAITSSSGRRWYADSVKGRFTISADNSKNTAYLQMNSLKPEDTAVYYCAADRMYRPVGNQYDWGQGTLVTVSS
B33: NRP1-47 (VHH)
VHH: B31 VHH with T28S, F29S, S30R, I31Y, L47F, S52K, R53W, T54S, G56T
B34: NRP1-75 (VHH)
VHH: B31 VHH with F29I, I31V, S52N, T54S, G56K
B35: NRP1-114 (VHH)
VHH: B31 VHH with T28S, F29S, S30R, I31Y, L47F, S52R, R53W, T54S, S57T, Y59F
B36: NRP1-99 (VHH)
VHH: B31 VHH with F29S, S30N, L47F, T54S, S57L, T58K, Y59S
B37: NRP1-106 (VHH)
VHH: B31 VHH with D99R, M101I, Y102V, R103N, P104V, V105E, N107A, Q108Y, Y109R
B38: NRP1-81 (VHH)
VHH: B31 VHH with T28S, F29S, S30R, I31Y, L47F, S52R, R53W, G56M, S57N, Y59H

target: T1, neuropilin-1 (NRP1) on HEK293 cells overexpressing NRP1 (UniProt O14786 22-923, limits assumed); test: flow cytometry, HEK293-NRP1 vs HEK293
T1 construct: whole, on cells

Binder	100 nM FACS (MFI Ratio)
B1	6.9
B2	6
B3	15.4
B4	0.4
B5	2.2
B6	0.7
B7	0.8
B8	0.6
B9	0.7
B10	4.9
B11	0.4
B12	1960
B13	6.1
B14	2.7
B15	3.1
B16	5.8
B17	0.9
B18	15.7
B19	3

Binder	100 nM FACS (MFI Ratio)
B20	6.9
B21	13.2
B22	1.4
B23	5
B24	3.7
B25	1
B26	1.4
B27	233
B28	1.8
B29	2.8
B30	3.6
B31	8.8
B32	2.4
B33	6.6
B34	4.2
B35	8.7
B36	0.8
B37	2.2
B38	5
